Consider 16 molecules from patent US20240327530A1 (ICHNOS SCIENCES, published 2024).

Where a chain is given by its changes, count along the chain named. Numbers in names are those of the source.

B1: Anti-IL-1RAP-C8-H1A-C4-Fab (Fab, V domains shown)
VH: QVQLVQSGAEVKKPGSSVKVSCKASGGKLNAYAIQWVRQAPGQGLEWMGYIIPLHGQVDYAQKFQGRVTITADESTSTAYMELSSLRSEDTAVYYCARGQTLYDSGRQFDIWGQGTLVTVSS
VL: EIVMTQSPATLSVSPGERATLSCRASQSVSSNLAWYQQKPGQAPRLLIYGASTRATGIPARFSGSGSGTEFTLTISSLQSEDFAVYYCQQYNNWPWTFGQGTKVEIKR
B2: Anti-IL-1RAP-C8-H1A-C8-Fab (Fab, V domains shown)
VH: B1 VH with K28L, L29F, N30S, A31D
VL: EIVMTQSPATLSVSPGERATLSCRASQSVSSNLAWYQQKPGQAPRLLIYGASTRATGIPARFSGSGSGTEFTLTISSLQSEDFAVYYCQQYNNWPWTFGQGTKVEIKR
B3: Anti-IL-1RAP-C8-H1A-D8-Fab (Fab, V domains shown)
VH: B1 VH with K28H, L29F, A31N
VL: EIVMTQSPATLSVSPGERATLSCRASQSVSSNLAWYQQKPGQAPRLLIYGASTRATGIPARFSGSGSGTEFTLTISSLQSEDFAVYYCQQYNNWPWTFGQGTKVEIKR
B4: Anti-IL-1RAP-C8-H1A-F1-Fab (Fab, V domains shown)
VH: B1 VH with K28I, L29F, N30S, A31N
VL: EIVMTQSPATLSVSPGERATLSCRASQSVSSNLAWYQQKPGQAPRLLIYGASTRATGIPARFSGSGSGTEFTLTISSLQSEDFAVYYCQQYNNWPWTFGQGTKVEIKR
B5: Anti-IL-1RAP-UCP03-B4-Fab (Fab, V domains shown)
VH: QVQLVQSGAEVKKPGSSVKVSCKASGGPFSQHAISWVRQAPGQGLEWMGGIIPFEGVAFYAQKFQGRVTITADESTSTAYMELSSLRSEDTAVYYCARSSSYYSWLDYWGQGTLVTVSS
VL: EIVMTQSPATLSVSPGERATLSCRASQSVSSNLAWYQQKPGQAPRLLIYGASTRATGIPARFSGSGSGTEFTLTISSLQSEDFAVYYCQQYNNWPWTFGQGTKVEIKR
B6: Anti-IL-1RAP-UCP03-G4-Fab (Fab, V domains shown)
VH: QVQLVQSGAEVKKPGSSVKVSCKASGGRFSHYVFSWVRQAPGQGLEWMGGIIPYEGKPFYAQKFQGRVTITADESTSTAYMELSSLRSEDTAVYYCARSDYFYYYFDPWGQGTLVTVSS
VL: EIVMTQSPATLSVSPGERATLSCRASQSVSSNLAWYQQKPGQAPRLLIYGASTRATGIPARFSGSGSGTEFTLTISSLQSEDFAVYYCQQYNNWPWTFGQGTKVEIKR
B7: Anti-IL-1RAP-UCP02-A6-Fab (Fab, V domains shown)
VH: QVQLVQSGAEVKKPGSSVKVSCKASGGAFRIYAIHWVRQAPGQGLEWMGGILASGGGAVYAQKFQGRVTITADESTSTAYMELSSLRSEDTAVYYCARAKDIYGYGYGDIWGQGTLVTVSS
VL: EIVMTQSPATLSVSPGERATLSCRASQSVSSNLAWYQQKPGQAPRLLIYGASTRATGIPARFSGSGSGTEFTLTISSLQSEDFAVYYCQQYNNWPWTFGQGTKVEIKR
B8: Anti-IL-1RAP-UCP03-A2-Fab (Fab, V domains shown)
VH: QVQLVQSGAEVKKPGSSVKVSCKASGGKFNFDVIHWVRQAPGQGLEWMGGIIPDFASTHYAQKFQGRVTITADESTSTAYMELSSLRSEDTAVYYCARVPDYYTGWMAYWGQGTLVTVSS
VL: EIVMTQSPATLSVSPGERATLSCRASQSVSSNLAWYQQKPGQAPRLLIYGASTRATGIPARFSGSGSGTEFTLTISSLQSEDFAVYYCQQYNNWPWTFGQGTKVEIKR
B9: Anti-IL-1RAP-UCP03-C2-Fab (Fab, V domains shown)
VH: QVQLVQSGAEVKKPGSSVKVSCKASGDPFKRYAIGWVRQAPGQGLEWMGGIIPTTGEAIYAQKFQGRVTITADESTSTAYMELSSLRSEDTAVYYCARHGTTYAAFDHWGQGTLVTVSS
VL: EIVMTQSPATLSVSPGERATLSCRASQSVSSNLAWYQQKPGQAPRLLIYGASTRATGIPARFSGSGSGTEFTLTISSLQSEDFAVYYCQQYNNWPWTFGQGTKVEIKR
B10: Anti-IL-1RAP-UCP03-G3-Fab (Fab, V domains shown)
VH: QVQLVQSGAEVKKPGSSVKVSCKASGGPLSGYAFHWVRQAPGQGLEWMGGIIPNFAQTDYAQKFQGRVTITADESTSTAYMELSSLRSEDTAVYYCARFSIYSGWSDVWGQGTLVTVSS
VL: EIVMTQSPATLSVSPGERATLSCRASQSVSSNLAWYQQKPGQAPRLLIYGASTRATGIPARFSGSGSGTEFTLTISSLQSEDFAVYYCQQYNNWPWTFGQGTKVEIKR
B11: Anti-IL-1RAP-UCP02-G8-Fab (Fab, V domains shown)
VH: QVQLVQSGAEVKKPGSSVKVSCKASGGFFSIYAISWVRQAPGQGLEWMGGIAPAAGIAEYAQKFQGRVTITADESTSTAYMELSSLRSEDTAVYYCARGQSPGRVREEYWYDYWGQGTLVTVSS
VL: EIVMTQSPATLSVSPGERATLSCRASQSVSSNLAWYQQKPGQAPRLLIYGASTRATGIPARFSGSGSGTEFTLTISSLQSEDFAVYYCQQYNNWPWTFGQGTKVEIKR
B12: Anti-IL-1RAP-UCP03-B6-Fab (Fab, V domains shown)
VH: QVQLVQSGAEVKKPGSSVKVSCKASGDPFSVYIIHWVRQAPGQGLEWMGYIIAQQGSASYAQKFQGRVTITADESTSTAYMELSSLRSEDTAVYYCARVPDPYSGHFDYWGQGTLVTVSS
VL: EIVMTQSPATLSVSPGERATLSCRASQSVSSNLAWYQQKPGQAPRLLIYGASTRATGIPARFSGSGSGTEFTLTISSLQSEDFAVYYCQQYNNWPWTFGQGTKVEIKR
B13: Anti-IL-1RAP-UCP02-G3-Fab (Fab, V domains shown)
VH: QVQLVQSGAEVKKPGSSVKVSCKASGGYLNEYAIHWVRQAPGQGLEWMGAVIPRYGQTYYAQKFQGRVTITADESTSTAYMELSSLRSEDTAVYYCARPLGYSYGWFDYWGQGTLVTVSS
VL: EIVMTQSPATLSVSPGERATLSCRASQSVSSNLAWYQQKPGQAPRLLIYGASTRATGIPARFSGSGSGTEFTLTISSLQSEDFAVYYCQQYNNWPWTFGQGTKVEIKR
B14: Anti-IL-1RAP-UCP02-B11-Fab (Fab, V domains shown)
VH: QVQLVQSGAEVKKPGSSVKVSCKASGGHFSQFAISWVRQAPGQGLEWMGGIAPGLGSTRYAQKFQGRVTITADESTSTAYMELSSLRSEDTAVYYCARDSIYSAWLAYWGQGTLVTVSS
VL: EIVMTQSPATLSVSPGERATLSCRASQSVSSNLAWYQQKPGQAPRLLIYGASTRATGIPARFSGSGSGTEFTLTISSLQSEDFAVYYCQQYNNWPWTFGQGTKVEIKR
B15: Anti-IL-1RAP-UCP03-A3-Fab (Fab, V domains shown)
VH: QVQLVQSGAEVKKPGSSVKVSCKASGGLFNENAIHWVRQAPGQGLEWMGGIIPDVGAAFYAQKFQGRVTITADESTSTAYMELSSLRSEDTAVYYCARGSIYTAWFAVWGQGTLVTVSS
VL: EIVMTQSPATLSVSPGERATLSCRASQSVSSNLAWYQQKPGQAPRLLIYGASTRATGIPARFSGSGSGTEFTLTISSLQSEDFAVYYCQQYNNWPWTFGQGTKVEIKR
B16: Anti-IL-1RAP-UCP03-C1-Fab (Fab, V domains shown)
VH: QVQLVQSGAEVKKPGSSVKVSCKASGGRFSSNAISWVRQAPGQGLEWMGGIIPHFGAVYYAQKFQGRVTITADESTSTAYMELSSLRSEDTAVYYCARGSVYTGWFDNWGQGTLVTVSS
VL: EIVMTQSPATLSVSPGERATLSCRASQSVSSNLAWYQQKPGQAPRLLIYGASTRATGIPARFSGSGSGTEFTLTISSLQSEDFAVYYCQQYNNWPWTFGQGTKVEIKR

One experiment concerns the target T1, Recombinant human IL-1RAP Fc fusion protein (Acrobiosystems, catalog no. ILP-H5256) (human, UniProt Q9NPH3 21-359, limits assumed).
T1 construct: Bought; not shown: Fc part of the bought fusion protein
T1 sequence: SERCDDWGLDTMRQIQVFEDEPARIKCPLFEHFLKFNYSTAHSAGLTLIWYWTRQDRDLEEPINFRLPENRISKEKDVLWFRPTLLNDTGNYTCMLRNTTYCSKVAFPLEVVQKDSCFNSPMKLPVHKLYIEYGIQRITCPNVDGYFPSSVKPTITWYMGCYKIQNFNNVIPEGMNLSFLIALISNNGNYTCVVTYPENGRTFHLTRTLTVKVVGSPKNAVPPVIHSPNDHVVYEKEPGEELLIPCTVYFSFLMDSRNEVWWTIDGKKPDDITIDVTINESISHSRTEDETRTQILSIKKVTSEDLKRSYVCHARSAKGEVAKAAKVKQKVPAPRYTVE
Description: SPR, human IL-1RAP-Fc captured, Fab as analyte (0.08 to 50 nM). As for the experimental part: BR100669) at a flow rate of 30 μl/min for 3 min on fc1 and fc2 (fc1 being used as reference). Dissociation was monitored for 5 min. After each cycle, the surface was regenerated with 60 μl of regeneration solution provided with anti-human IgG Fc capture kit (BIACORE™, GE […]®, catalog no. BR100839) or BiotinCAPture kit (BIACORE™, GE […]®, catalog no. 28920234) respectively. Experimental data were processed using the 1:1 Langmuir kinetic fitting model. Measurements included zero-concentration samples for referencing. Chi², U- and residual values were used to evaluate the quality of a fit between the experimental data and individual binding models. […]
(In general: SPR reads the build-up and loss of mass on a sensor chip optically.)
Usually Kd stands for the constant that tells how readily two partners part at equilibrium. Turning to B1, the Kd came out at 0.000995 µM.
Still for that read-out and setting: for B2 the value was 0.00124 µM; for B3, 0.00151 µM; for B4, 0.000832 µM.

Another experiment addresses T2, Recombinant cynomolgus monkey IL-1RAP-ECD(S21-E359)-avi-his protein (cynomolgus monkey, UniProt P59822 21-359 (rhesus entry)).
T2 construct: also called cyno IL-1RAP-ECD-Avi-His; recombinant cynomolgus monkey IL-1RAP-avi-his protein
T2 sequence: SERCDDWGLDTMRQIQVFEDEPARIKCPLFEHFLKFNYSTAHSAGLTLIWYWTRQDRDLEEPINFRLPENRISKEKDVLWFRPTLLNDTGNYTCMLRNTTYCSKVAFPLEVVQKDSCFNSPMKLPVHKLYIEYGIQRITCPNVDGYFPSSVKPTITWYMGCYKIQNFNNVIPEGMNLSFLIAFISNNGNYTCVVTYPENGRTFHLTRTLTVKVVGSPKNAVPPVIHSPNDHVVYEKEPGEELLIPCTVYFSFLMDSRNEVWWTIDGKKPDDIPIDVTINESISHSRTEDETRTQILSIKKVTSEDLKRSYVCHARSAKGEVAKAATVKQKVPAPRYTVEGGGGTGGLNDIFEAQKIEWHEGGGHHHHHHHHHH
In words: SPR, biotinylated cyno IL-1RAP-avi-his captured, Fab as analyte, 1:1 fit. How it is done: (§1) Surface plasmon resonance (SPR) was used to measure the binding affinities of the Fab fragments for human, cynomolgus monkey and/or mouse IL-1RAP. Affinities were measured on a BIACORE™ T200 instrument (BIACORE™, GE […]®) at 25° C. and analyzed with the BIACORE™ T200 Evaluation Software (v3.1). Measurements were performed on Series S CM5 sensor chips (BIACORE™ T200, BIACORE™, GE […]®, catalog no. BR100530) coupled with anti-human IgG Fc (BIACORE™, GE […]®, catalog no. BR100839) using a commercial amine coupling kit (BIACORE™, GE […]®, catalog no. BR100050) or on Series S BiotinCAPture chips (BIACORE™, GE […]®, catalog no. 28920234). SPR measurements were performed with commercially available recombinant human IL-1RAP Fc fusion protein (Acrobiosystems, catalog no. ILP-H5256) and recombinant mouse IL-1RAP Fc fusion protein (Sino Biologicals, catalog no. 52657-M02H) or with biotinylated recombinant cynomolgus monkey IL-1RAP-avi-his protein produced in-house (SEQ ID NO. 2).
(§2) The affinities to human, cynomolgus monkey and mouse IL-1RAP were assessed by immobilizing IL-1RAP and using Fab fragments as analyte. Around 100 RU of human or mouse IL-1RAP Fc fusion protein were captured on fc2 of a Series S CM5 sensor chip coupled with anti-human IgG Fc and around 150 RU of biotinylated cynomolgus monkey IL-1RAP protein were captured on fc2 of a Series S BiotinCAPture chip. Fab fragments were injected in single cycle kinetic at different concentrations ranging from 7.8 to 500 nM, in HBS-EP+ buffer (BIACORE™, GE […]®, catalog no. BR100669) at a flow rate of 30 μl/min for 3 min on fc1 and fc2 (fc1 being used as reference). Dissociation was monitored for 5 min. After each cycle, the surface was regenerated with 60 μl of regeneration solution provided with anti-human IgG Fc capture kit (BIACORE™, GE […]®, catalog no. BR100839) or BiotinCAPture kit (BIACORE™, GE […]®, catalog no. 28920234) respectively. Experimental data were processed using the 1:1 Langmuir kinetic fitting model. Measurements included zero-concentration samples for referencing. Chi², U- and residual values were used to evaluate the quality of a fit between the experimental data and individual binding models.
In the case of B5, the Kd amounted to 0.22 µM.
On the same count and under the same terms, the figure for B6 is 0.378 µM.
The same measure, in the same setting: for B7 the value was 0.197 µM; for B8, 0.589 µM.
Same read-out and setting: the figure for B9 is 0.486 µM.
Take B10: the Kd turned out to be 0.464 µM.
The same measure, in the same setting: for B11 the value was 0.116 µM; for B12, 0.756 µM; for B13, 0.296 µM.
As for B14, the Kd was determined as 0.0787 µM.
Still for that read-out and setting: the figure for B15 is 0.177 µM; for B16 it is 0.761 µM.

In a further experiment the target is T1, Recombinant human IL-1RAP Fc fusion …. Description: SPR, human IL-1RAP-Fc captured, Fab as analyte, 1:1 fit. As for the experimental part:
as §1, §2
As to B5, the dissociation constant (Kd) is 0.221 µM.
Still for that read-out and setting: for B6 the value was 0.42 µM.
The same measure, in the same setting: for B7 the value was 0.223 µM; for B8, 0.582 µM.
On the same count and under the same terms, for B9 the value was 0.7 µM; for B10, 0.279 µM.
Turning to B11, the dissociation constant Kd was 0.0735 µM.
Same read-out and setting: for B12 the value was 0.545 µM; for B13, 0.23 µM; for B14, 0.0981 µM.
Turning to B15, the Kd is 0.137 µM.
Regarding B16, the Kd came to 0.573 µM.

In a further experiment the target is T3, Recombinant mouse IL-1RAP Fc fusion protein (Sino Biologicals, catalog no. 52657-M02H) (mouse, UniProt Q61730 21-350).
T3 construct: Bought; not shown: Fc part of the bought fusion protein
T3 sequence: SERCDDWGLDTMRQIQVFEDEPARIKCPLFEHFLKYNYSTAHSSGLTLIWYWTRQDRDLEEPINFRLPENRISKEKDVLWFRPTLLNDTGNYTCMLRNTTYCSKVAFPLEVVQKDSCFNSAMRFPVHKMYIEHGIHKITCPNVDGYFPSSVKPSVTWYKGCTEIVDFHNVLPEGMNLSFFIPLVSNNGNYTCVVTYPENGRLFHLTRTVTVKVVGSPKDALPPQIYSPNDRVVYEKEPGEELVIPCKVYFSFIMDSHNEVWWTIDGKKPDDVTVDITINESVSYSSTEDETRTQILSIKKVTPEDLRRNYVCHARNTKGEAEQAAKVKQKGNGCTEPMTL
Description: SPR, mouse IL-1RAP-Fc captured, Fab as analyte. As for the experimental part:
as §1, §2
B5: the binding result is recorded as “no binding (tested: 7.8 to 500 nM Fab)”.
Turning to B6, the binding result is given as “no binding (tested: 7.8 to 500 nM Fab)”.
On the same count and under the same terms, for B7 the value was “no binding (tested: 7.8 to 500 nM Fab)”.
Still for that read-out and setting: for B8 the value was “no binding (tested: 7.8 to 500 nM Fab)”; for B9, “no binding (tested: 7.8 to 500 nM Fab)”.
Consider B10, for which the binding result is reported as “no binding (tested: 7.8 to 500 nM Fab)”.
Same read-out and setting: for B11 the value was “no binding (tested: 7.8 to 500 nM Fab)”.
Same read-out and setting: the entry for B12 is “no binding (tested: 7.8 to 500 nM Fab)”.
In the case of B13, the binding result is reported as “no binding (tested: 7.8 to 500 nM Fab)”.
As to B14, the binding result is listed as “no binding (tested: 7.8 to 500 nM Fab)”.
Turning to B15, the binding result is listed as “no binding (tested: 7.8 to 500 nM Fab)”.
Still for that read-out and setting: for B16 the value was “no binding (tested: 7.8 to 500 nM Fab)”.
